Common to all, as to test: BLI
(In general: Biolayer interferometry detects binding as a change in optical thickness at a sensor tip.)

Experiment [1] has as its target spike RBD of the Alpha variant (B.1.1.7) (SARS-CoV-2, Alpha (B.1.1.7), N501Y).
Experiment [2] deals with spike RBD of the Epsilon variant (SARS-CoV-2, Epsilon (B.1.429), strain).
For experiment [3], the target named is spike RBD of the Lambda variant (SARS-CoV-2, Lambda (C.37), strain).

B1: mNb6(WT) (VHH)
VHH: QVQLVESGGGLVQAGGSLRLSCAASGYIFGRNAMGWYRQAPGKERELVAGITRRGSITYYADSVKGRFTISRDNAKNTVYLQMNSLKPEDTAVYYCAADPASPAYGDYWGQGTQVTVSS
Broadly, the Kd is the concentration at which binding is half-saturated. A higher Kd goes with lower affinity. On to B1, for which the Kd in experiment [1] worked out at 1.5 nM; in experiment [2] it was 1.32 ± 0.11 nM; in experiment [3] it was 2.86 ± 0.77 nM.

For the origin of these results see article PMC9288967 (Chem, 2022).
